Experimental data published in the supplement of paper PMC10065799, “High-throughput profiling of sequence recognition by tyrosine kinases and SH2 domains using bacterial peptide display” (eLife, 2023).

Legend:
SHP2-C SH2 = assay: SH2 binding enrichment of the phosphorylated peptide, bacterial display (enrichment ratio); higher = better substrate or ligand; peptides without Tyr show the background
c-Src SH2 = assay: as above
Grb2 SH2 = Grb2 SH2 (UniProt P62993); assay: as above
Fyn = Fyn (UniProt P06241); assay: phosphorylation enrichment, bacterial display (enrichment ratio); higher = better substrate or ligand; peptides without Tyr show the background
FGFR1 = FGFR1 (UniProt P11362); assay: as above
EPHB1 = EPHB1 (UniProt P54762); assay: as above
c-Src = assay: as above
Fer (mouse) = assay: as above
Hck = Hck (UniProt P08631); assay: as above
c-Abl (mouse) = assay: as above
Fes = Fes (UniProt P07332); assay: as above
EPHB2 = EPHB2 (UniProt P29323); assay: as above
AncSZ = assay: as above
Jak2 = Jak2 (UniProt O60674); assay: as above
MERTK = MERTK (UniProt Q12866); assay: as above
FGFR3 = FGFR3 (UniProt P22607); assay: as above
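Throughout, for SH2 binding enrichment of the phosphorylated peptide, bacterial display: peptide library displayed on the E. coli surface as eCPX fusions, selected cells deep-sequenced, score is each peptide's frequency after selection divided by its frequency in the input.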
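Throughout, for phosphorylation enrichment, bacterial display: 11-residue human phosphosite peptides and single-mutation variants displayed on the E. coli surface, counted by deep sequencing, each peptide's frequency after selection divided by its frequency in the unselected input library; frequency after pTyr selection over input frequency; kinase dosed for 20-30% of maximal phosphorylation in three min.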

Chain of Fyn (P06241 whole entry, looked up): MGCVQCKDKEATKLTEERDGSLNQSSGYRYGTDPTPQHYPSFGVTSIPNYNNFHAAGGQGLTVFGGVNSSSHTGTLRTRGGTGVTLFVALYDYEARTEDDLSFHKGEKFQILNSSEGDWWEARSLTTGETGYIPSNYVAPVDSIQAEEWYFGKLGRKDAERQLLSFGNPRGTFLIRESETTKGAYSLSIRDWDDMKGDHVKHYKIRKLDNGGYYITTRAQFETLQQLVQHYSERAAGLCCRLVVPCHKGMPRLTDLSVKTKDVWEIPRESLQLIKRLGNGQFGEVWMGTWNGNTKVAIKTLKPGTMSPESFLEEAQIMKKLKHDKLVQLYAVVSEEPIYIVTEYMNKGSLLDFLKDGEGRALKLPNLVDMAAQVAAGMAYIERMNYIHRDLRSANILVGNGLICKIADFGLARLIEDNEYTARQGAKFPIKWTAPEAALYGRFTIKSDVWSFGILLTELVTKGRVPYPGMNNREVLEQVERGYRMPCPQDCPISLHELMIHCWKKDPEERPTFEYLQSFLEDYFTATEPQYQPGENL
Chain of Fes (P07332 whole entry, looked up): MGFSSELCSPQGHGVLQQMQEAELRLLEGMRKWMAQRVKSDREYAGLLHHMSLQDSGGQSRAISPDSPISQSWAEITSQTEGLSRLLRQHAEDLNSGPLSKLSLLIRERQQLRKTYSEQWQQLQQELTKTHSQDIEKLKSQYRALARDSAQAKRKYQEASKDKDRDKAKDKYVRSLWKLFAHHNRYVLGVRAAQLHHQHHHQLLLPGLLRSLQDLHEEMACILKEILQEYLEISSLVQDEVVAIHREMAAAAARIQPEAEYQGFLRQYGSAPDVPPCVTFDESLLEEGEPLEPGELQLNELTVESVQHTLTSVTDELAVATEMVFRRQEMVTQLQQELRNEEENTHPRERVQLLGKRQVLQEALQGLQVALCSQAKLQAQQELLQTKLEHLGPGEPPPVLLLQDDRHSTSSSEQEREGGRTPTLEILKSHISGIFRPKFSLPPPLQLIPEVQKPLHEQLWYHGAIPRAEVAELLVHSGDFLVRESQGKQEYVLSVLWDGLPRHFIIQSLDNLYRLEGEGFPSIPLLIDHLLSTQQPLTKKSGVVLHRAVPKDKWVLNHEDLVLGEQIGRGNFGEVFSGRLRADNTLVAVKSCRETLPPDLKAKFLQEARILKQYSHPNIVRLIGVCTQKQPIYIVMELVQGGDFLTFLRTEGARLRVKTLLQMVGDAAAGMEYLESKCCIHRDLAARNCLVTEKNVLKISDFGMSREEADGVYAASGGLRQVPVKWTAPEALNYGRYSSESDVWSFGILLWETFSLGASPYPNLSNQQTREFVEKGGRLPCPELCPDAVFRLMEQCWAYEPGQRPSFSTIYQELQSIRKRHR
Chain of EPHB2 (P29323 whole entry, looked up): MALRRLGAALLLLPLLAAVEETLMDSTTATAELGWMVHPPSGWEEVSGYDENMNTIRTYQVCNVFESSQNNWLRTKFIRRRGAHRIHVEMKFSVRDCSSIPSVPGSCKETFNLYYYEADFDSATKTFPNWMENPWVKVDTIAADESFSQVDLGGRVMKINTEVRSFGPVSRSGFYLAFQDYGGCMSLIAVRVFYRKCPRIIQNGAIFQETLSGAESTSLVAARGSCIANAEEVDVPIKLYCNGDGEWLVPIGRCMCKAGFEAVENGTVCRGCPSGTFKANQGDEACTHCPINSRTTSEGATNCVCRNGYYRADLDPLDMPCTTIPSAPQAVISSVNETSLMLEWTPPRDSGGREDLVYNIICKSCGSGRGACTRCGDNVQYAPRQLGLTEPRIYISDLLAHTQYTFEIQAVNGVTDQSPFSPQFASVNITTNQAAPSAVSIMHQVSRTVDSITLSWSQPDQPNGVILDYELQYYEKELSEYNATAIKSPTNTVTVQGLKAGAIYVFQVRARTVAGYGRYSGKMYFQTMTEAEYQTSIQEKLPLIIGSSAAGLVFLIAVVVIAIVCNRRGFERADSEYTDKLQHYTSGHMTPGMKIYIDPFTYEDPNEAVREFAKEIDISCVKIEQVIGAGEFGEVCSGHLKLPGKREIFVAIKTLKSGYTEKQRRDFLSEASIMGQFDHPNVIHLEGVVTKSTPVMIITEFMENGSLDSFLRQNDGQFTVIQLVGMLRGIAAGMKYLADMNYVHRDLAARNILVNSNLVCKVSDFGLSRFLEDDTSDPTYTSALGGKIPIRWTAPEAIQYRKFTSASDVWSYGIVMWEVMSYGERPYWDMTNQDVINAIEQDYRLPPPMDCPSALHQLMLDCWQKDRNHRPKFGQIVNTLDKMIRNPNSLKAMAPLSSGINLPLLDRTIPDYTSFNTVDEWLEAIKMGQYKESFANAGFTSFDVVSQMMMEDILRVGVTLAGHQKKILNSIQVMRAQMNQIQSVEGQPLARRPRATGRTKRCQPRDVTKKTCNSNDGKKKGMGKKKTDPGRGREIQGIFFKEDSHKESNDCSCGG
Chain of EPHB1 (P54762 whole entry, looked up): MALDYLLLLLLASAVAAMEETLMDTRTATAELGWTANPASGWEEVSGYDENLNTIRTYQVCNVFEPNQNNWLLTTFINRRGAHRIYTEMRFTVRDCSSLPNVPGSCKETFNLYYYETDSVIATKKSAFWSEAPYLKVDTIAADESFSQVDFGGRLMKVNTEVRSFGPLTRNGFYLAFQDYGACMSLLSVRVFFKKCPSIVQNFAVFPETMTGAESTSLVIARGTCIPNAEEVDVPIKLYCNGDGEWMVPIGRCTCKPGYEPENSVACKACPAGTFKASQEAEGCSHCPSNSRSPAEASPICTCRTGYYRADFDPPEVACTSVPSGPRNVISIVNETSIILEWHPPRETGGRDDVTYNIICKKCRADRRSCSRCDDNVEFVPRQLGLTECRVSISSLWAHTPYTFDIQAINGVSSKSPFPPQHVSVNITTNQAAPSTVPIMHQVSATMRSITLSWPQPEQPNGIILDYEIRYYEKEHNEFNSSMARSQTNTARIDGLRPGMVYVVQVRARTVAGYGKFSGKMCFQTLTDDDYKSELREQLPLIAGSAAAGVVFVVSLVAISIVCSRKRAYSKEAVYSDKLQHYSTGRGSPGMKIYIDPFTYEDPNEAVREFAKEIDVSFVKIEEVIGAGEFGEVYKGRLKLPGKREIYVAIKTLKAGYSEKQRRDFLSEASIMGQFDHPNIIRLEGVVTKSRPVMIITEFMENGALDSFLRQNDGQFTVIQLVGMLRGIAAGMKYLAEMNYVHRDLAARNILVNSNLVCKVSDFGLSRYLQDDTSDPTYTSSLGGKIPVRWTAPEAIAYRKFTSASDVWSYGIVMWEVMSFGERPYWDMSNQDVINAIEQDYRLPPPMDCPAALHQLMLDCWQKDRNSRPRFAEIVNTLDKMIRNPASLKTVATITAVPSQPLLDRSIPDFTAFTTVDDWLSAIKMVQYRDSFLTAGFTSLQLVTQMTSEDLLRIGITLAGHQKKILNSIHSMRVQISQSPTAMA
Chain of FGFR1 (P11362 whole entry, looked up): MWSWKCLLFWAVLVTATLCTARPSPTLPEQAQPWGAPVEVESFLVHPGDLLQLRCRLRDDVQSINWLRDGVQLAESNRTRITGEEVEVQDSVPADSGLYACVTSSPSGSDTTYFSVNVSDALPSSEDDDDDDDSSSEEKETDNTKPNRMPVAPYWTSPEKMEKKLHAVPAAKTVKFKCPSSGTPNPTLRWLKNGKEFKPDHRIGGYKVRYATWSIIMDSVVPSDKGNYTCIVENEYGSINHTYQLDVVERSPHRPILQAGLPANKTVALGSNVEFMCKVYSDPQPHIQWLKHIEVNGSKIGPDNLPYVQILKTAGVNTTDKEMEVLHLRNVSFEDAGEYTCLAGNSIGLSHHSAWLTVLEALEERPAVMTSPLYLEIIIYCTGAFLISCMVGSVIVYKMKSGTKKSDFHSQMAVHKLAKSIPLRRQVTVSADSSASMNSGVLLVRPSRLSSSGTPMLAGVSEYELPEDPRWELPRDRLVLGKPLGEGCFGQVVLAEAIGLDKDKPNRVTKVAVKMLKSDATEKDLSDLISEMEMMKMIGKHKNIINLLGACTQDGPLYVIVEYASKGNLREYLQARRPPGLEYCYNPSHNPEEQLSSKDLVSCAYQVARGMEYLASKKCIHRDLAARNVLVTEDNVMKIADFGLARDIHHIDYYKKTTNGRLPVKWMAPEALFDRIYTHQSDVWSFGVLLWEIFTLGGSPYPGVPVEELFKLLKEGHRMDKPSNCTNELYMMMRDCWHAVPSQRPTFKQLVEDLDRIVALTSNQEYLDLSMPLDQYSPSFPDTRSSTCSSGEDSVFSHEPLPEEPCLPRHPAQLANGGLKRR
Chain of Hck (P08631 whole entry, looked up): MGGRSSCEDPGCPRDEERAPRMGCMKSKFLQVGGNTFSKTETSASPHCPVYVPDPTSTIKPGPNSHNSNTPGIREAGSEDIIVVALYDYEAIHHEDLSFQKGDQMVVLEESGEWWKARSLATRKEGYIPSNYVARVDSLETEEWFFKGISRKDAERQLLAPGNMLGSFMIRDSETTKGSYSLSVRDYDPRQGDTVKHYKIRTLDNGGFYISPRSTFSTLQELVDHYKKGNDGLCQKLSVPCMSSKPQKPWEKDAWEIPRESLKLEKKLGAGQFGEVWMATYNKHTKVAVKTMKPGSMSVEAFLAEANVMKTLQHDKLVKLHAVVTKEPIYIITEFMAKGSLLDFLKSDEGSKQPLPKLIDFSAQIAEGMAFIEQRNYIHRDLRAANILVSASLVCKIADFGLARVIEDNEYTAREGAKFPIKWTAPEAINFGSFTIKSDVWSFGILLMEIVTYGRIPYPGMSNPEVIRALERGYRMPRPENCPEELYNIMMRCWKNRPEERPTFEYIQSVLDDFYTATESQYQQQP

Row | SH2 binding enrichment (SHP2-C SH2) | SH2 binding enrichment (c-Src SH2) | SH2 binding enrichment (Grb2 SH2) | Sequence | phosphorylation enrichment (Fyn) | phosphorylation enrichment (FGFR1) | phosphorylation enrichment (EPHB1) | phosphorylation enrichment (c-Src) | phosphorylation enrichment (Fer (mouse)) | phosphorylation enrichment (Hck) | phosphorylation enrichment (c-Abl (mouse)) | phosphorylation enrichment (Fes) | phosphorylation enrichment (EPHB2) | phosphorylation enrichment (AncSZ) | phosphorylation enrichment (Jak2) | phosphorylation enrichment (MERTK) | phosphorylation enrichment (FGFR3)
1 | 0.933 | 0.817 | 0.749 | RLSPEYKQNEI [GJB1_Y243] | 0.403 | 0.481 | 0.468 | 0.72 | 0.491 | 0.584 | 0.821 | 0.682 | 0.555 | 0.82 | 0.59 | 0.621 | 0.446
2 | 0.613 | 0.437 | 0.787 | PQDSAYHSGIQ [FLG_Y3940_S3935P] | 0.459 | 0.534 | 0.652 | 0.553 | 0.419 | 0.486 | 1.69 | 0.755 | 0.49 | 0.651 | 0.598 | 0.445 | 0.522
3 | 0.581 | 1.02 | 1.1 | KSAAIYNPVIY [RHO_Y301] | 7.54 | 1.41 | 0.805 | 6.12 | 15.4 | 8.17 | 0.727 | 0.72 | 0.744 | 0.758 | 0.573 | 3.42 | 1.25
4 | 0.571 | 0.558 | 0.675 | STSFDYCRVPM [BST2_Y8_YF] | 0.828 | 5.41 | 9.03 | 0.957 | 0.827 | 1.57 | 0.932 | 1.32 | 5.96 | 2.98 | 2.03 | 0.903 | 3.97
5 | 1.78 | 1.88 | 7.6 | TSSAVYMNLAS [GATAD2B_Y317_I316V] | 3.21 | 1.31 | 1.67 | 3.04 | 0.818 | 4.17 | 0.755 | 0.83 | 0.65 | 0.759 | 0.776 | 3.69 | 1.09
6 | 0.687 | 1.14 | 0.993 | VKANTYEKYWL [GATM_Y100_P105L] | 0.668 | 0.582 | 0.661 | 0.652 | 2.47 | 0.583 | 0.644 | 0.837 | 0.5 | 0.794 | 0.733 | 0.875 | 0.541
7 | 2.13 | 1.08 | 1.67 | DFKIIYIVPMR [SNRNP200_Y540_A542V] | 0.412 | 0.55 | 0.525 | 0.42 | 0.487 | 0.382 | 1.74 | 1.11 | 0.532 | 1.09 | 0.952 | 0.366 | 0.653
8 | 0.684 | 0.897 | 0.991 | IFGVSYDEFRF [CFTR_Y512_YF] | 0.673 | 0.5 | 0.456 | 2.32 | 1.52 | 0.93 | 0.678 | 0.982 | 0.524 | 1.07 | 1.09 | 0.671 | 0.609
9 | 14.9 | 0.871 | 0.901 | RQRTAYFSLNT [CDH1_Y68_D72N] | 0.699 | 0.586 | 0.661 | 0.667 | 0.552 | 0.423 | 0.77 | 1.1 | 0.68 | 0.794 | 1.34 | 0.566 | 0.745
10 | 0.547 | 0.522 | 1.14 | RLTEGYTGPFK [ZNF862_Y181_I178T] | 0.473 | 0.364 | 0.323 | 0.423 | 0.382 | 0.509 | 0.426 | 0.611 | 0.41 | 0.519 | 0.625 | 0.402 | 0.456
11 | 0.461 | 0.323 | 0.692 | RRSQSYNPTSG [PLEKHA2_Y185_I186N] | 0.897 | 0.649 | 0.435 | 0.811 | 0.458 | 0.821 | 0.765 | 0.972 | 0.512 | 0.612 | 0.809 | 0.491 | 0.523
12 | 1.04 | 0.758 | 1.15 | RELGEYGLQAF [ALDH2_Y497_YF] | 0.775 | 0.653 | 0.707 | 0.704 | 0.816 | 0.772 | 0.951 | 1.66 | 1.07 | 1.07 | 0.724 | 1.87 | 0.793
13 | 0.942 | 0.646 | 0.988 | KNSSIYVVANI [VNN1_Y134_N131S] | 0.567 | 0.528 | 0.681 | 0.691 | 0.622 | 0.662 | 1.07 | 1.38 | 0.64 | 1.23 | 1.31 | 0.751 | 0.873
14 | 0.613 | 0.642 | 0.953 | PDKRIYQFTAS [SKAP2_Y197_A202S] | 0.826 | 0.831 | 0.491 | 0.765 | 0.802 | 0.698 | 0.551 | 0.684 | 0.629 | 0.691 | 0.637 | 0.846 | 0.649
15 | 0.728 | 0.473 | 0.692 | SRFQFYFQQKG [CHKB_Y381] | 0.48 | 0.579 | 0.938 | 0.379 | 0.597 | 0.551 | 0.99 | 1.56 | 0.612 | 1.63 | 1.47 | 0.369 | 1.02

Row | Sequence | SH2 binding enrichment (SHP2-C SH2) | SH2 binding enrichment (c-Src SH2) | SH2 binding enrichment (Grb2 SH2) | phosphorylation enrichment (Fyn) | phosphorylation enrichment (FGFR1) | phosphorylation enrichment (EPHB1) | phosphorylation enrichment (c-Src) | phosphorylation enrichment (Fer (mouse)) | phosphorylation enrichment (Hck) | phosphorylation enrichment (c-Abl (mouse)) | phosphorylation enrichment (Fes) | phosphorylation enrichment (EPHB2) | phosphorylation enrichment (AncSZ) | phosphorylation enrichment (Jak2) | phosphorylation enrichment (MERTK) | phosphorylation enrichment (FGFR3)
16 | DHAGTYGLGDR [MAPT_Y18] | 0.783 | 0.588 | 0.797 | 0.48 | 0.406 | 0.363 | 0.533 | 0.3 | 0.43 | 0.442 | 0.576 | 0.304 | 0.429 | 0.507 | 0.352 | 0.45
17 | TPIFPYLLPKS [PLD2_Y580_T577I_YF] | 0.451 | 0.393 | 0.877 | 0.799 | 0.825 | 0.467 | 0.489 | 0.551 | 0.64 | 0.7 | 0.685 | 0.463 | 0.632 | 0.723 | 0.538 | 1.57
